# Test: yeast display, Sf9 membrane polyspecificity reagent, FACS + sequencing; frameworks hold sequencing errors
# How it was run: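 After 36–48 hours of galactose induction, yeast (Saccharomyces cerevisiae BJ5465) displaying a synthetic nanobody library were stained at 4 °C for 1 hour with 10% biotinylated, detergent-solubilized Sf9 membrane reagent. Streptavidin microbeads enriched the stained cells before FACS sorting into low and high (top ~1%) gates on anti-HA and streptavidin fluorescence. Each clone's polyreactivity label reflects its gate of origin.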
row,Sequence,polyreactivity (PSR sort gate)
1,QVQLVESVGGLVQAGGSLRLSCASSVRTFYRYAMGWYRQAPGKERELVAAISRGGRTNYADSVKGRFTISRDNAKNTVYLQMNSLKPEDTAVYYCAVSNYGALYDYWGQGTQVSVSS,high polyreactivity
2,QVQLVESGGGLVQAGGSLRLSCAASGRIFVYNAMGWYRQAPGKERELVASISWSGDSTYADSVKGRFTISRDNAKNTVYLQMNSLKPEDTAVYYCAADNGSKEFDYWGQGTQVTVSS,low polyreactivity
3,QVQLVESGGGLVQAGGSLRLSCAASGYILYGYAMGGYRQAPGKERELVAAISNDGSTYYADSVKGRFTISRDNAKNSVYLQMNSLKTEDTAVYYCNAREYGYFKYDYWGQGTQVTVSS,high polyreactivity
4,QFQLVESGGGLVQAGGSLRLSCAASGFTFSHNTMGWYIQSPGKEREFVARISGRGVSTSYADSVKGRFTISRDNAKNTVYLQMNCLKPEDTAVYYCNRRVAYLSGYSYDYWGQGTQVTVSS,high polyreactivity
5,QVQLVESGGGLVQAGGSLRLSCAASGNIFDQNAMGWYRQAPAKERELVAAITRSGSTTYYADSVKGRFTISRDNAKNTVYLQMNSLKPEDTAVYYCAAKVYAYRTYKMYYWGEGTQVTVSS,high polyreactivity
6,QVQLVESGGGLVQAGGSLRLSCPASGRTFHYYTLGWYRQSPGKERELVARISLGVGSTYYADSVKGRFTISRDIAKNTVDLQMNSLKPEDTAVYYCNAVWYKSVVKGVYGRVDWGQGTQVTVSS,low polyreactivity
7,QLQLEESGGGLVQAGGSLRLSCAASGRTFESYGMGLYRQATGKERELVAAISHNADSTYADSVKGRFTISRDNAKNTVYLQMNSLKSEDTAVYYCNAETPVRSDYWGQGTQVTVSS,low polyreactivity
8,QVQLVESGGGLVQAGGSLRLSCAASGRIFVYYAMGWYRPAPWKERELVAVITSGGITYYADSVKGRFTISRDNAKNTVYLQMNSLKPEDTAVYYCAARGHQYDPGSSGKKYYYWGQGTQVTVSS,high polyreactivity
9,QVQLVESGGGLVQAGGSLRLSCAAYGSTFRTNAMGWYRQAPGKERELVAAISQRGGSTYYADSVKGRFTISRDNAKNTVYLQMNSLKPEDTGVYYCAARRYAYQSGGTLLTDDYWGQGTQVTVSS,high polyreactivity
10,QVQLVESGGGLVQAGGSLRLSCAASGSISYFYAMGWYRQAPGKERELVADINSGDDTYADSVKGRFTISRDNAKNTVYLQMNSLKPEDTAVYYCSVKYGGYESHYYRRPHYDYWGQGTQVTVSS,low polyreactivity
11,QVQLVESGGGLVQAGGSLRLSCAASGSIFRLYAMGWYRQAPGKERELVAAISWTVGRTYYADSVKGRFTISRDNAKNTVYVQMNSLKPEDTAVYYCAAEKRILANWRRFDYWGQGTQVTVSS,low polyreactivity
12,QVQLVESGGGLVQAGGSLRLSCAASGFTFIVNPMGWYRQAPGKERELVAAISWNGGSTYYADSVKGRFTISRDNAKNTVYLQMNSLKPEDTAVYYCAVLYRSEYVWGQGTQVTVSS,low polyreactivity
13,QVQLVESGGGIVQAGGSLRLSCAASGRTSVVNAMGWYRQAPGKERELVAAITSGGSTHYADSVKGRFTISRDNAKNTVYLQINSLKPEDTAVYYCNARDRRRTNLLDYWGQGSQVTVSS,low polyreactivity
14,QVQLVESGGGLVQAGGSLRLSCAASGSIFTYYAMGWYRKAPGKERELVAAITKSGGRTYYAHSVMGRFTISRDNAKNTVYLQMNRLKPEDTAVYYCAALYGRYQTSYQFDYWGQGTQVTVSS,high polyreactivity
15,QVQLVESGGGLVQAGGSLRLSCAASGFIFGLYAMGWYRQAPGKERELVAAISWSGGSTYYADSVKGRFTISRDNAKNTVYLQMNSLKPEDTAVYYCAKRGGYGYEYYYWGQGTQVTVSS,high polyreactivity
16,QVQLVESGGGVVQAGGSLRLSCAASGRNFGHYTMGWYRQAPGIERELVARISQSGGSTRYADSVKGRFTISRDNAKNTVYLQMNSLKPEDTAVYYWATYRRHFFYFAIPGYSSAYEYSGQGTQVTVSS,high polyreactivity
17,QVQLVESGGGLVQAGGSLRLSCAASGSTFSDYAMGWYRQAPGKERELVAAISYSGGSTYYADSVKGRFTISRDNAKNTVYLQMNSLKPEDTAVYYCAAEYERYFGYDYWGQGTQVTVSS,low polyreactivity
18,QVQLVESGGGLVQAGGSLRLSCAASGFTFIYNAMGWYRQAPGKERELVAAITGGGGSTYYADSVKGRFTISRDNAKYTVYLQMNSLKPEDTAVYYCNVYYPQSGVTYDYWGQGTLVTVSS,low polyreactivity
19,QVQRVESGGGLVQAGGSLRLSCAASGSTLRKYVMGWYRQAPGKERELVAAISSSGGRTYYADSVKGRFTISRDNAKYTVYLQMNSLKPEDTAVYYCAATRYIPGFYYWGQGTQVTVSS,high polyreactivity
20,QVQLVDSGGGLVQAGGSLRLSCAASGSNFGTYAMGWYRQAPGKERELVAAITTNGVSTYYADSVKGRFTISRDNAKNTVYLQMNSLKPEDTAVYYCAAPIQAWVRHLADIRYDYWGQGTQVTVSS,low polyreactivity

row,Sequence,polyreactivity (PSR sort gate)
1,QVQLVESGGGLVQAGGSLRLSCAASGFTFNSYAMGWYRQAPGKERELVAAITWRGGSTYADSVKGRFTISRDNAKNTVYLQMNSLKPEDTAVYYCNAVSDVKRYDYWGQGTQVTVSS,high polyreactivity
2,QVQLVESGGGLVQAGGSLRLSCAASGLIFVWYAMGWYRQAPGKERELVAAISWRGGTTYYADSVKGRFTISRDNAKNTVYLQMNSLKPEDTAVYYCNAVGSQVDYLRYVWYDMDYWGQGTQVTVSS,low polyreactivity
3,QVQLVESGGGLVQAGGSLRLSCAASGRIFYWYAMGWYRQAPGKERELVATINSGGSTTYADSVKGRFTISRDNAKNTVYLQMNSLKPEDTAVYYCARQRTVKKYYYWGQGTQVTVSS,high polyreactivity
4,QVQLVETGGGLVQAGGSLRLSCASSGSIFRAYAMGWYRQAPGNERELVAYISRSGGSTYYADSVKGRFTISRDNAKNTVYLQMNSLTQEDTAFYYCAAVFYLYSNLYGEYDYWGQGTQVTVSS,low polyreactivity
5,QVQLVESGGGLVQAGGSLRLSCAASGFTFHNNVMGWYRQAPGKERELVATISKSGGSTYYADSVKGRFTISRDNAKNTVYLQMNSLKPEDTAVYYCARRYRDYGRYGYWGQGTQVTVSS,high polyreactivity
6,QVQLVESGGGLVQAGGSLRLSCAASGFIFGRYAMGWYRQAPGKEREFVAAITWRGGNTYYADSVKGRFTISRDNAKNTVYLQMNSLKPEDTAVYYCAKKTAGHPWGPIYDYWGQGTQVTVSS,high polyreactivity
7,QVQLVESGGGLVQAGGSLRLSCAASGRTFPLYGMGWYRQAPGKERELVATISRSGGSTYYADSVKGRFTISRDNAKNTVYLQMNSLKPEDTAVYYCIADRHYVPYYSRPRYIPYDYWGQGTQVTVSS,high polyreactivity
8,QVQLVESGGGLVQAGGSLRLSCAASGSIFAANAMGWYRQAHGKERELVAAISWSGGYTYADSVKGRFTISRDNAKNTVYLQMKSLKPEDTAFYYCAADLWSQYKFGYWGQGTLVTVSS,low polyreactivity
9,QVQLVESGGGLVQAGGSLRLSCAASGLTFYGNAMGWYRQAPGKERELVAAISRGGRTYYADSVKGRFTISRDNAKNTVYLQMNSLKPEDTAVYYCATVVSRGKQPFDMDYWGQGTQVTVSS,low polyreactivity
10,QVQLVESGGGLVQAGGSLRLSCAASGSTFYTYTMGWYRQAPGKERELVAAISSRGVSTYYADSVKGRFTISRDNAKNTVYLQMNSLKPEDTAVYYCAVSRIVDFGQKMYYWGQGTQVTVSS,high polyreactivity
11,QFQLVESGGGLVQAGGSLRLSCAASGRIFRRYTMGWYRQAPGKERELVATITWDGVSTYYADSVKGRFTISRDNAKNTVYLQMNSLKPEDTAVYYCNVDVYYYVLSYQYDYWGQGTQVTVSS,high polyreactivity
12,QVQLVESGGGLVQAGGSLRLSCASSGRIFDSNTMGWYRQAPGKERELVAAINWSDGSTYYADSVKGRFTISRDNAKYTVFLQMNSLKPEDTAVYYCNAGARRYLYDYWVQGTQVTVSS,low polyreactivity
13,QVQLVESGGGLVQAVGSLRLSCAASGGTIDIYAMGWYRQAPAKERELVARISYSSGSTHYADSVKGRFTNSRDNAKNTVYLQMNSLKPEDTAVYYCAATAYWFYAKYYYWGQGTQVTVSS,high polyreactivity
14,QVQLVESGGGLVQAGGSLRLSCAPSGYIFAPNAMGWYRQAPGKERELVAAITFSGGSTSYADSVKGRFTISRDNAKNTVYLQMNSLKPEDTAVYYCAAYWYSLYYLFPYDYWGQGTLVTVSS,low polyreactivity
15,QVQLVESGGGLVQAGGSLRLSCAASGRTFNYYAMGWYRQAPGKERELVAAISWSGTPTYYADSVKGRFTISRDHAKNTVYLQMNSLKPEDTAVYYCAAYLVSYPRGNYIRYDYWGQGTQVTVSS,low polyreactivity
16,QVQLVDSGGGLVQAGCSLRISCAASGSIYTTYAMGWYRQAPGKERELVAALTRSGGRTYYADSVKGRFTISRDNAKYTVYLQMTSLKPEDTAVDDCNAYGYRTWWDDFKLDYWGQGTQVTVSS,high polyreactivity
17,QDQLVESGGGLVQAGVSLRLRSAASGFISQENAMGWYRQAPGKDRELVATISGSVGITYYADSVKGRFTISRDNAKNTVYLQMNSLKPEDTAVYYCNKEISYLSWGYDYWGLGTQVTVSS,low polyreactivity
18,QVQLVESGGGLVQAGGILSLSCAASGIIFYTYAMGWYRQAPGKERELVATISWDVDSTNYADSVKGRFTISRDNAKNTVYLQMNSLKPEDTAVYYCAVDYTFDSYWYWVDYYEYGYWGQGTQVTVTS,high polyreactivity
19,QDQLVESGGGIVQAGGSLRLSCAASGSTFPIYAMGWYRQAPGKERELVADITSTGSTDYADSVKGRFTISRDNAKNTVYLQMNSLKPEDTAVYYCAADYYYSAYFWSDFDYWGQGTQVTVSS,high polyreactivity
20,QVQLVESGGGLVQAGGSLRLSCAASGFTFEENDMGWYRQAPGKETELVAAINWSGGNTYYADSVKGRFTISRDNAKNTVYLQMNSLKPEDTAVYYCAADSPRYYYWVGPYYGYDYWGQGTQVTVSS,high polyreactivity

# Reference: the nanobody polyreactivity screen of Harvey et al. (2022)
